The test system of data set [1] is Putidaredoxin D38A mutant. Briefly: continuous-wave EPR. As to conditions: other: continuous-wave EPR (high-spin to low-spin conversion of the heme).
For data set [2], the system named is Putidaredoxin W106A mutant. The experiment in a line: continuous-wave EPR. Particulars: other: continuous-wave EPR (high-spin to low-spin conversion of the heme).

Take “MTSL-P450cam (P450cam labelled with MTSL at S48C and S190C)”: the “conversion from the high-spin to low-spin state” value in data set [1] and in data set [2] was “approximately 50% conversion” in each case.

The values are drawn from PMC9749489.
